Target: Gin4p kinase domain (codons 1-294), DBD fusion (S. cerevisiae) (UniProt Q12263)
Experiment: two-hybrid

UniProt Q12263, sequence (Q12263 1-294): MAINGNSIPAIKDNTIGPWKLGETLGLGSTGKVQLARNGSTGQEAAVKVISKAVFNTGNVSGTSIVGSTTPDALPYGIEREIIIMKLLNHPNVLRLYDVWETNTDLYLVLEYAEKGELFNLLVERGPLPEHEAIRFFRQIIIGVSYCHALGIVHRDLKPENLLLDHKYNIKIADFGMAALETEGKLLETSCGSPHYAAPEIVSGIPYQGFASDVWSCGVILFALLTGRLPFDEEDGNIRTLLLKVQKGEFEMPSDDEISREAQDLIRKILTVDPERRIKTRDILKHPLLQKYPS

units of β-galactosidase activity (units of β-galactosidase activity): 727
Substance: COOH-terminal region of Cdc3p (the 101 COOH-terminal amino acids), AD fusion (domain or fragment)
